{
  "source": "the DeepSol protein solubility set",
  "data": [
    {"assay": "soluble on expression in E. coli; label from the status in PepcDB or PDB records", "values": [
      {"sequence": "MGSDKIHHHHHHMYVAVKGGETAIANAHSLLADRRRGDRSLPTMTVDQIVEQLTLAVGRVMAEASLYDRKLAALAIKQARGDMIEAIFLLRAYRTTLPRFGLSEPVDTGAMRIERRISATYKDLPGGQLLGPTFDYTHRLLDPSLLEEGDVEPPVQKIPTSEAAMRVSDILREEGLIEPDGDMPEDHLAGDITRQPIEFPMARDLRLQSLARGDEGFLLALAYSTQRGYGRSHPFAGEIRLGEVEVELDVPELGFAVSLGRIQVTECQMVNQFKGSSKAPPQFTRGYGLVFGQSERKAMAMSLVDRSLRAEELGEDITAPAQDQEFVLSHCDNVQATGFVEHLKLPHYVDFQAELDLVRRMRSEHEQARQQGLDLSEAAE", "soluble on expression in E. coli": "not soluble"},
      {"sequence": "MGSDKIHHHHHHMYYGSIITVLSSDKNKLTGIAEKLGKLHETAKTKIYYRKKGEYIRSILLTTEYPEKIIDLAEALSLSSTAILYIPETLTWMDGELALLIDSLNTHNKIVISNLDQGKINNILGSLSSFTKFDLYNDIPDLSETEEEDKGIVYVDRVFTVKGVGTVVTGFSFTNVEVHEKLVALPYNKEVEIKSIQVLDEDQKSVSTGVRIGFALKNVKEEEIEDLLYLVKPNVKVVKEIEGQITNYKWSTINQGQNHIIVKGHGIAANIKVDNQKAKIMSSVPIPIVDNRILVLNVNVRQGKPRVAGYISL", "soluble on expression in E. coli": "not soluble"},
      {"sequence": "MGSDKIHHHHHHNEAQVSAVKQFVEGFNQKNVQSMQSHTTDDVKWFSISEGAMALETSDKEELGEAMQNYFSGYSSAHAKIVNLVNSGDFISTVEQVKWQNEGKWFMQCSLGVYRFKQNKIASVWYYPAHVCDATNAQVN", "soluble on expression in E. coli": "not soluble"},
      {"sequence": "MGSDKIHHHHHHQDGNQPALVDALVVNARTPGPAWWSVSKGDKKVWVLGIGAPVPADAKWDGRAFERRVKASRQLILVPPSKTRFEKNTIKADRKWLDELTEAERARLAEVATQTGRKLEFYTLFRPNFAGLLINSELQARAKPKMGKLLDLSVRARRLGARLVPAGGLDAQAMKASFQVGGKDSLICLRWAMRPRDAAALREQRAQAWMRGDVRTLLVGPAAYDPCVQAMAAMQASLENNEGALANTIAATLDRGDGAVALVGLVPLLREGGVLDQLRKRGYLIETPAQMDDED", "soluble on expression in E. coli": "not soluble"},
      {"sequence": "MGSDKIHHHHHHQSLKLSDNVVRIGVLTDLSGVYSELSGQGSVKAAQMAAADFMAMNPSFRGKVQVIGVDHQNKADVASNKAAEMIDRQKVDVLMDLPTSSAALAASEVARQKKVPVMVVTGGTTALTNEKCNKYTFHYAYDNYMLANGTGTAVTKRGGNSWYIIYPNYAFGQDLNRQMTAAIQENGGKLVAPSDATPFPNTDFSSYLLKAQGLKPKVFGTMQAGADLVNVVKQYNEFGLRQQGIGLGIGLLFETDVAALGQDAFAGALATVPWYWNMDQRARDWAAKFEKAFGKKPTWAQAGVYSATMTYLQAVARAKSDDGDAVVKALEGHRFSDFFARNAYVRPQDHRVMLDVYTVQVKPKAQAKENGDYFNKVATIPAARAFMPLSESKCRM", "soluble on expression in E. coli": "not soluble"},
      {"sequence": "MGSDKIHHHHHHQTPAPLAEWQFSAGIPLEKLFEDTIPDWEVRLGGAAMVRPRYDGSSNYIVVGGPSIDIRYRDIAFASIGEGLGVNVLRGKNWRAGIALSYNLGRRAKETSPLLDGMENINPAPEAKLFAEYAVSKEFPLVMRVDARRSLGGSDGWIGDIGAYMPMPGSSEKFFWFAGPTMTLADSRYMNAWYGVSASQARPGRPQFSPSGGVRSYGFGVSAVWFFDKHWFATTDVAVMQLVGDAKRSPLTQSSTNGVFDVSVNYQF", "soluble on expression in E. coli": "not soluble"},
      {"sequence": "MGSDKIHHHHHHSCGDKMNKNTGALEFDSIQVNETAHLFGDTAKPACNLTINFAYPVKSTDNKLKDSLNSYFIAACFGEGYIGEKPAQVVKEYTEHYVKEYRTDLEPMYAEDEKNKESEGSIGAWYSYYKGIESHVQLYYKNLLVYRINYNEYTGGAHGIYMTTFLNMDLINLRPLKLDDIFTGDYKEALTDLLWNQLMADKKVTTHEALEDMGYGSTGDIAPTENFYLDKDGITFYYNVYDITPYAMGPVEIKIPYEMMEHMLGSNPIIGEMKSK", "soluble on expression in E. coli": "not soluble"},
      {"sequence": "MGSDKIHHHHHHSDIATSVTQGGEQRLADGGYFELGASVYGTNQLDIRQTEHESIQPSLLISGMYQYKGLFAEMVHQSQDGINFGINLWSSNNWSLDLLAVNYQGSAGRSENTELSQLDEDGRNAYLMETDSIFIGAGFRVTRYWDDHYVFQYRIVSDYFDDQGISTTARLGKSWQVRNWNFHALASIEYASTKLSRNLFGVESMEATELFPEYRPSSAVTYGMELGVAYPLSEKLVFRTVYRLNVLSKEITASPFNQADYGSFFNASFSYVF", "soluble on expression in E. coli": "not soluble"},
      {"sequence": "MGSDKIHHHHHHSGKLRKSNESGAMRAFRDGEVTIMVNVNLFTEGIDLPGVDVCIMLRPTASLSLYLQFAMRALNPRDGKRAILIDHVGNHIRHGLPNDDRYWTLEGVDKRKSSSKEKEEAPKTCENCFATFYRDRIVDGKCPYCGEPLKIIKDIEKEATNETLTLINQGMEFVSIRGEMIEVTREEALVYKRVKRYGKKYERCESLAELKAFRIIHGYAPGWLWHKQKELNLWRN", "soluble on expression in E. coli": "not soluble"},
      {"sequence": "MGSDKIHHHHHHTYDYFEDETNYQVFVPEVLNKTVSDCRVLVYNDAGTLVGARYATSPWDKDPRMEAGLFSFRLTPGEYKVYCYTNTDSLTFVDGQHLDASAFILKSSSTGPNRYVQPSDILFQKFVPAIVHPGILQTDTAALERYTGRITVRFKKFPGDVSHIKKVQLLAEGAPVMQYLKNDTLTGRLTPEDKMFHFGTLPVQEKADVLEVDHRFIPSVENEPMRLNYTFLDENGAVVNHLPVEVTERETGLPLRLLHGKRIIIEIESYTVIKISVVGWNEDIESGDTDME", "soluble on expression in E. coli": "not soluble"},
      {"sequence": "MGSDKIHHHHHHVAKPKTVYICSECGGQSPKWAGQCPSCNAWNTLVESVAEAPSTHRFQSLAKSAPVRRLADIEASDVPRFTTGVSEFDRVLGGGLVPGGVVLIGGDPGIGKSTLLLQSLAEIAADKRALYISGEESAAQIALRAQRLSLLEPGSRASELQLLAEIQLEKIQATIAEQRPDVAVIDSIQTVYSDALTSAPGSVAQVRECAAQLTRIAKQSGTTIIMVGHVTKEGALAGPRVLEHIVDTVLYFEGDTHSSYRLVRAIKNRFGAVNELGVFAMTERGLRGVANPSALFLSQHEQSVAGSCVLVTQEGTRPLLVEVQALVDAANAPNPRRLAVGLEQNRLAMLLAVLHRHAGIACFDQDVFLNAVGGVKITEPAADLAVLLAIHSSMRNKPLPKGLVVFGEVGLAGEIRPSPRGQERLKEAAKLGFSVAVIPRANAPKQPIEGLQVVAVERIEQAIDRVRTLE", "soluble on expression in E. coli": "not soluble"},
      {"sequence": "MGSDKIHHHHHHVDDRPGTTGIRRTNPVMTDPKHRTEAPFDEQIIREYLIDNPDFFGRYPELLLAMRMSHTERGTVSLLERRQEMYRNRVAQLEEEITALMTQARRNEKIFRFNNDLQFKLLASAALGDVRQILSQALMSEFGFTHVRLITVHDVDSELSAIWSNRLARGHYFGRLTASESRRLFGSEVGSVALTRLSEHCGQVVFAIASQDPAHFHPEMDNLLLDQLRRILDHLLPRL", "soluble on expression in E. coli": "not soluble"},
      {"sequence": "MGSDKIHHHHHHVFIGIETTDPEGLKETGKVQNLREDPLTAVRRIYAHGIDVLGGFIIGFDHDTMATFEHQYRFITDAGIQSAMIGLLMALPRTPLHERMQREGRLLPLDGHADNTCLTTNIAPRSMNIDAMVAAYQELYRRLLTGPEIGRRIRNKMKYLQAPVYGSGYSMGQRAGILARLMVRGIGAGGLSTLVAFLRSFPFLTPSRIPMVISDWIIGLSMKAFAETSLLGRSTQGLNNAATGISTGLRDP", "soluble on expression in E. coli": "not soluble"},
      {"sequence": "MGSDKIHHHHHHVGAGHPRKELEGKAKATKQQQDLKKLLSGQKHVAFPQQVVALPFDASANLTALVYEPLLPLQYSDYKGAQLITGLRKIHEKNVVHGDISVRNIMQSKQGVAKFIDLNPMDPLSESKKSRDIRYLGKSLLEMKFAKSLEQENHRMLSYIAKHEDIYSKAQSNQAYQELKYNNAWFTYSLTQSGSIEKVPGDMDTFLELLGMEEIIKRDLEKQAGEVFSFDGKFAKFISEQPDPENTDFTAMALYMLEHGQIPNNADGILAKLLRVKQ", "soluble on expression in E. coli": "not soluble"},
      {"sequence": "MGSDKIHHHHHHVKEIRERGGTVKQQLITTHDGGRLALYSYGTVDAPGERRVVVIGGAFLTALIYRPFSEALSKGLGDGWAVDVYDRRGRGESTPQPADYSMATEIADVRTIMDATGARNLFGHSLGGSVALNAVQEFVGTAHQPDRLAVYDAAVNIDGSVDTSWLDSFERSVNEGNVPHALAKLKKGMQPGTAMARIPEPVLAGLMALVSRTKVNRLFKEVMPSGVGELKAVFDEADHVRDFSVLPPNTRFMVGSKSPRYYKVTAELLHRAVPGSVLQVSPKCVHASIPAAVKELVADISAYYKG", "soluble on expression in E. coli": "not soluble"},
      {"sequence": "MGSDKIHHHHHHVKKLELYTGTEQGKPAIGIRLGGEASIQDLLDLWQPLCDDSELFKSYAAGNHATCRGCLHNCCQTAYVIPDLISFKKMAAHLHLTYKEFLSADFFDAEKLEAGIVRMKPNPCIFLQDNICSIYPLRSLICRFYICCQLMGDCEQLIYSICWSGSAATQLFAEQEGLINSKGSGALSSFDLMFKRLMEEYRFDPRVQLFLQANDYYDIPLSAFTAADI", "soluble on expression in E. coli": "not soluble"},
      {"sequence": "MGSDKIHHHHHHVKSELIWSKALETSRKAIDCAAVIPLETYKYKSIKKCFDFELRFLKRTFPKNLIDYGPKANPFIPWDRRLEVQAVNDNYTIILNKYPVQLGHLLLISNYWKPQNSWLSIDDFEAIAKVDNDTTGLWFFNSSKDAGASQPHRHFQLLRRDKYENICPRYEWFCSLLNNSEGFNSDIKQCISIKPRKSKLDIDAHDLFNSYKSMIIEMDLGNINNDDKPLKPYNLLITEKWISLIVRSKDRAHGFGINALGFAGYFLGTRRSDIDMLIKFGPESILKDVI", "soluble on expression in E. coli": "not soluble"},
      {"sequence": "MGSDKIHHHHHHVNVAQPEPGSGPTVRRMLLGSQLRRLREAKGISRADAAYKIRGSESKISRIELGRVGFKTRDVEDLLTFYGVEDEAVRDSFLKLAREANEPGWWQQYGDSLPSWFQSYVGMEEAATQLRVYETQFVPGLLQTEDYARAVVTRGGRKKLDDAARHRIATRMRRQERIRKNHNVKLWVIIDEPAVRRPVGTPEVMRAQLEHLYDLSMAPNITLQIVPFHQGVFAAETGSFTILRYPEYDLPDVVYVEQLTSCLFQEKRADVEQYTMTLEWLAVVAERPDQTRKMLQKMIKELEE", "soluble on expression in E. coli": "not soluble"},
      {"sequence": "MGSDKIHHHHHHVPSGNGDNPATGARGGNMEISFLVPNSSNGSRAASAEDSGVYEDGTAEEYKVSNVTLYLFDSSSKNLVTTINVTQSDLGAGTSSGESSKEGQTIVYPCNKEITVKPGNYDILAVANGSQTFEIGQESTLLGQIDASTYGNGMITSVPGSGFIMSNRGSANMNITVESPEESDTKTQVRINLERAVAKLMVRNDSKEIYTLKNPAGVTYATVRLNNYKFINLANKFYTFRHVATLDNAPETPSAPSSYSVEAGNFGNIADNNGYLIDPYFFDKTVAGATTNFTGGSFYTNHLSKQTDSNWSGLADAGKYVSMYCLENCMFRPAQNTVYTTGIMLKGTFTPEASQTIGNNGNPVEDPLVFNTLYYFNYKFYTTLAAVGKYGDANIDGLTEESSDAELAAKQITRFTKNGGNFSTFYNYWIKHLDNNNPTVMGVMEFGIVRNNIYSVNITSIKNLGPGTPDTKPDPDENKAFLDVEFGVYPWIVRDQDADLE", "soluble on expression in E. coli": "not soluble"},
      {"sequence": "MGSDKIHHHHHHVQKMAEGSHSAITLEAGKYRATVDPLGAALRTLHWGERELVWGYPEGRPQLAQGQILLPWPNRIDHGRYSFGGTTYQLEITEPELDNAIHGLTSTLLWQPSQITADSVRFTLAFDGAPGYPFRMEFWVCYSLDPDHGLHVRIGAQNTGDGPAPYGHGSHNYLTLGLPVDEVTLQLPAAEWQPVNERMIPTGPVRSVAGTDYDFRTPRQVGPTVLDTAFTGLRFDEAGRSWTVLSAGELCVGLWADDSHPWLQVFSADYPGPERRRHLAVEPMTCPPNAFVTGTDLIVLDPGQSIESSFGITSTPE", "soluble on expression in E. coli": "not soluble"}
    ]}
  ]
}
